For the assay, the target named is HLA-B*07:02 (Homo sapiens, UniProt P01889). The assay can be described thus: MHC binding assay (UV-ligand exchange, beta2m ELISA). The settings on record: peptide exchange yield. The source says: Candidate peptides for T cell based therapies according to the present invention were further tested for their MHC binding capacity (affinity). The individual peptide-MHC complexes were produced by UV-ligand exchange, where a UV-sensitive peptide is cleaved upon UV-irradiation, and exchanged with the peptide of interest as analyzed. Only peptide candidates that can effectively bind and stabilize the peptide-receptive MHC molecules prevent dissociation of the MHC complexes. To determine the yield of the exchange reaction, an ELISA was performed based on the detection of the light chain (β2m) of stabilized MHC complexes. The assay was performed as generally described in Rodenko et al. (Rodenko et al., 2006).
96 well MAXISorp plates (NUNC) were coated over night with 2 ug/ml streptavidin in PBS at room temperature, washed 4× and blocked for 1 h at 37° C. in 2% BSA containing blocking buffer. Refolded HLA-A*02:01/MLA-001 monomers served as standards, covering the range of 15-500 ng/ml. Peptide-MHC monomers of the UV-exchange reaction were diluted 100-fold in blocking buffer. Samples were incubated for 1 h at 37° C., washed four times, incubated with 2 ug/ml HRP conjugated anti-β2m for 1h at 37° C., washed again and detected with TMB solution that is stopped with […]. Absorption was measured at 450 nm. Candidate peptides that show a high exchange yield (preferably higher than 50%, most preferred higher than 75%) are generally preferred for a generation and production of antibodies or fragments thereof, and/or T cell receptors or fragments thereof, as they show sufficient avidity to the MHC molecules and prevent dissociation of the MHC complexes.

“351 (NVLTSTPAF; listed as Homo sapiens) [compound 351]”: the Peptide exchange entry is recorded as ““++” (>20% = ++)”.

With “333 (FPHSEMTTVM; listed as Homo sapiens) [compound 333]”, the Peptide exchange entry is recorded as ““+++” (>50 = +++)”.

For the substance “302 (RVEEVRALL; listed as Homo sapiens) [compound 302]”, the Peptide exchange entry is reported as ““+++” (>50 = +++)”.

For “370 (PGGTRQSL; listed as Homo sapiens) [compound 370]”, the Peptide exchange result is ““+” (>10% = +)”.

Consider “345 (LPTSESLVSF; listed as Homo sapiens) [compound 345]”, for which the Peptide exchange result was ““++” (>20% = ++)”.

Consider “331 (FPHPEMTTSM; listed as Homo sapiens) [compound 331]”, for which the Peptide exchange result is reported as ““+++” (>50 = +++)”.

Regarding “322 (SPDPSKHLL; listed as Homo sapiens) [compound 322]”, the Peptide exchange result is reported as ““++” (>20% = ++)”.

As to “136 (SPFSAEEANSL; listed as Homo sapiens) [compound 136]”, the Peptide exchange result is ““+++” (>50 = +++)”.

For the substance “126 (KPGPEDKL; listed as Homo sapiens) [compound 126]”, the Peptide exchange result is given as ““++” (>20% = ++)”.

For “149 (GPREALSRL; listed as Homo sapiens) [compound 149]”, the Peptide exchange result is recorded as ““+++” (>50 = +++)”.

Turning to “300 (IPMAAVKQAL; listed as Homo sapiens) [compound 300]”, the Peptide exchange entry is recorded as ““+++” (>50 = +++)”.

For “383 (TPTKETVSL; listed as Homo sapiens) [compound 383]”, the Peptide exchange result is reported as ““+++” (>50 = +++)”.

For “321 (SPMDTFLLI; listed as Homo sapiens) [compound 321]”, the Peptide exchange entry is given as ““++” (>20% = ++)”.

As to “118 (SPASRSISL; listed as Homo sapiens) [compound 118]”, the Peptide exchange result is ““+++” (>50 = +++)”.

For “339 (LPAGTTGSLVF; listed as Homo sapiens) [compound 339]”, the Peptide exchange entry is on record as ““+++” (>50 = +++)”.

Consider “332 (FPHSEMTTL; listed as Homo sapiens) [compound 332]”, for which the Peptide exchange result is reported as ““+++” (>50 = +++)”.

As to “131 (APTEDLKAL; listed as Homo sapiens) [compound 131]”, the Peptide exchange result was ““+++” (>50 = +++)”.

Regarding “391 (APSTPRITTF; listed as Homo sapiens) [compound 391]”, the Peptide exchange entry is recorded as ““+++” (>50 = +++)”.

As for “390 (NPDLRRNVL; listed as Homo sapiens) [compound 390]”, the Peptide exchange entry is recorded as ““+++” (>50 = +++)”.

For the substance “338 (HVTKTQATF; listed as Homo sapiens) [compound 338]”, the Peptide exchange entry is given as ““++” (>20% = ++)”.

Turning to “364 (TPLATTQRF; listed as Homo sapiens) [compound 364]”, the Peptide exchange result is on record as ““++” (>20% = ++)”.

Consider “352 (SPAETSTNM; listed as Homo sapiens) [compound 352]”, for which the Peptide exchange entry is ““+++” (>50 = +++)”.

Turning to “387 (APLKLSRTPA; listed as Homo sapiens) [compound 387]”, the Peptide exchange entry is given as ““+++” (>50 = +++)”.

In the case of “325 (GPRNAQRVL; listed as Homo sapiens) [compound 325]”, the Peptide exchange result is recorded as ““+++” (>50 = +++)”.

Consider “359 (SPSTIKLTM; listed as Homo sapiens) [compound 359]”, for which the Peptide exchange result is listed as ““+++” (>50 = +++)”.

For the substance “358 (SPSPVTSTL; listed as Homo sapiens) [compound 358]”, the Peptide exchange result is listed as ““+++” (>50 = +++)”.

Turning to “137 (SPGATSRGTL; listed as Homo sapiens) [compound 137]”, the Peptide exchange entry is given as ““+++” (>50 = +++)”.

Take “309 (FPQSQYPQY; listed as Homo sapiens) [compound 309]”: the Peptide exchange entry is listed as ““++++” (>75% = ++++)”.

Take “145 (SPSSPMSTF; listed as Homo sapiens) [compound 145]”: the Peptide exchange entry is reported as ““++” (>20% = ++)”.

For “144 (SPSPVSSTL; listed as Homo sapiens) [compound 144]”, the Peptide exchange result is ““+++” (>50 = +++)”.

Turning to “377 (RPRSPAGQVAAA; listed as Homo sapiens) [compound 377]”, the Peptide exchange result is ““+++” (>50 = +++)”.

As for “143 (SPAMTSTSF; listed as Homo sapiens) [compound 143]”, the Peptide exchange entry is ““++” (>20% = ++)”.

With “348 (MPNSAIPFSM; listed as Homo sapiens) [compound 348]”, the Peptide exchange entry is recorded as ““+++” (>50 = +++)”.

As to “142 (TPGLRETSI; listed as Homo sapiens) [compound 142]”, the Peptide exchange result is given as ““++” (>20% = ++)”.

Consider “384 (YPGLRGSPM; listed as Homo sapiens) [compound 384]”, for which the Peptide exchange entry is reported as ““++++” (>75% = ++++)”.

As for “328 (EPVTSSLPNF; listed as Homo sapiens) [compound 328]”, the Peptide exchange result was ““++” (>20% = ++)”.

As for “326 (VPSEIDAAF; listed as Homo sapiens) [compound 326]”, the Peptide exchange result is ““++” (>20% = ++)”.

In the case of “337 (HPVETSSAL; listed as Homo sapiens) [compound 337]”, the Peptide exchange result is ““+++” (>50 = +++)”.

Take “312 (LPYFREFSM; listed as Homo sapiens) [compound 312]”: the Peptide exchange result was ““+++” (>50 = +++)”.

For “376 (RPRSPAGQVA; listed as Homo sapiens) [compound 376]”, the Peptide exchange result is reported as ““+++” (>50 = +++)”.

As to “382 (SPMHDRWTF; listed as Homo sapiens) [compound 382]”, the Peptide exchange result was ““+++” (>50 = +++)”.

For “341 (LPLDTSTTL; listed as Homo sapiens) [compound 341]”, the Peptide exchange result is reported as ““+++” (>50 = +++)”.

Turning to “32 (SPNKGTLSV; listed as Homo sapiens) [compound 32]”, the Peptide exchange entry is given as ““+++” (>50 = +++)”.

Consider “315 (SPRENFPDTL; listed as Homo sapiens) [compound 315]”, for which the Peptide exchange result is listed as ““+++” (>50 = +++)”.

With “334 (FPYSEVTTL; listed as Homo sapiens) [compound 334]”, the Peptide exchange result is ““+++” (>50 = +++)”.

On to “133 (MPNLPSTTSL; listed as Homo sapiens) [compound 133]”, for which the Peptide exchange entry was ““+++” (>50 = +++)”.

For “373 (RPRALRDLRIL; listed as Homo sapiens) [compound 373]”, the Peptide exchange entry is on record as ““+++” (>50 = +++)”.

On to “299 (HPGSSALHY; listed as Homo sapiens) [compound 299]”, for which the Peptide exchange entry is recorded as ““++” (>20% = ++)”.

With “355 (SPLVTSHIM; listed as Homo sapiens) [compound 355]”, the Peptide exchange result is reported as ““+++” (>50 = +++)”.

“369 (FPHSEMTTV; listed as Homo sapiens) [compound 369]”: the Peptide exchange entry is on record as ““+++” (>50 = +++)”.

As to “374 (NPIGDTGVKF; listed as Homo sapiens) [compound 374]”, the Peptide exchange entry is recorded as ““+++” (>50 = +++)”.

Take “37 (RPLFQKSSM; listed as Homo sapiens) [compound 37]”: the Peptide exchange result is ““+++” (>50 = +++)”.

For “316 (EPKTATVL; listed as Homo sapiens) [compound 316]”, the Peptide exchange entry is recorded as ““++” (>20% = ++)”.

Take “141 (SPMTSLLTSGL; listed as Homo sapiens) [compound 141]”: the Peptide exchange result was ““+++” (>50 = +++)”.

With “342 (LPLGTSMTF; listed as Homo sapiens) [compound 342]”, the Peptide exchange result is listed as ““+++” (>50 = +++)”.

As for “380 (IPTYGRTF; listed as Homo sapiens) [compound 380]”, the Peptide exchange result was ““+++” (>50 = +++)”.

For “368 (VPTPVFPTM; listed as Homo sapiens) [compound 368]”, the Peptide exchange entry is ““++” (>20% = ++)”.

Consider “129 (APRPASSL; listed as Homo sapiens) [compound 129]”, for which the Peptide exchange result was ““+++” (>50 = +++)”.

For “360 (SPSVSSNTY; listed as Homo sapiens) [compound 360]”, the Peptide exchange entry was ““++” (>20% = ++)”.

On to “125 (VPVYILLDEM; listed as Homo sapiens) [compound 125]”, for which the Peptide exchange result is given as ““++” (>20% = ++)”.

For “363 (TAKTPDATF; listed as Homo sapiens) [compound 363]”, the Peptide exchange entry was ““++” (>20% = ++)”.

As for “379 (GPFPLVYVL; listed as Homo sapiens) [compound 379]”, the Peptide exchange entry was ““+++” (>50 = +++)”.

Consider “121 (VPNQSSESL; listed as Homo sapiens) [compound 121]”, for which the Peptide exchange result is reported as ““+++” (>50 = +++)”.

As to “120 (RPAMNYDKL; listed as Homo sapiens) [compound 120]”, the Peptide exchange entry is given as ““++” (>20% = ++)”.

Take “148 (KPYGGSGPL; listed as Homo sapiens) [compound 148]”: the Peptide exchange result is ““+++” (>50 = +++)”.

As to “130 (FPRLVGPDF; listed as Homo sapiens) [compound 130]”, the Peptide exchange entry is recorded as ““+++” (>50 = +++)”.

Values taken from patent publication US20210340217A1, “NOVEL PEPTIDES AND COMBINATION OF PEPTIDES FOR USE IN IMMUNOTHERAPY AGAINST OVARIAN CANCER AND OTHER CANCERS” (Immatics Biotechnologies GmbH, priority 2017, published 2021).
